Laboratory results from publication PMC2824112, “A comparative analysis of the fluorescence properties of the wild-type and active site mutants of the hepatitis C virus autoprotease NS2-3” (Biochimica et Biophysica Acta, 2010).

Molecular target: the molecule itself
Assay: cross-linking; glutaraldehyde (final 0.001-0.002% v/v in refolding buffer) on refolded NS2-3 precursor (0.2 uM), 50 ul, 25 °C, 5 min; SDS-PAGE and western blot with anti-FLAG; monomer to dimer

B1: JFH-1 NS2-3 wild-type precursor (HCV genotype 2a NS2-3 autoprotease, residues 907-1210) (domain or fragment)
chain: RAALTHVPYFVRAHALIRVCALVKQLAGGRYVQVALLALGRWTGTYIYDHLTPMSDWAASGLRDLAVAVEPIIFSPMEKKVIVWGAETAACGDILHGLPVSARLGQEILLGPADGYTSKGWKLLAPITAYAQQTRGLLGAIVVSMTGRDRTEQAGEVQILSTVSQSFLGTTISGVLWTVYHGAGNKTLAGLRGPVTQMYSSAEGDLVGWPSPPGTKSLEPCKCGAVDLYLVTRNADVIPARRRGDKRGALLSPRPISTLKGSSGGPVLCPRGHVVGLFRAAVCSRGVAKSIDFIPVETLDVVTR
notes: The wild type auto-cleaves at 25 °C with about 30% efficiency overnight; also called WT NS2-3; NS2-3 precursor; not shown: FLAG, C-terminal, kept
- stoichiometry N: 2
